Results on 5 molecules are retold here after patent US20180002403A1 (published 2018).

Changes are numbered by the printed parent chain. Read-outs that look alike come from different tables or passages of the source.

Test in all cases: BIAcore
(In general: SPR reads the build-up and loss of mass on a sensor chip optically.)

Assay [1] deals with T1, recombinant IL-17RA (human, UniProt Q96F46 33-320).
The target in assay [2] is T1, recombinant IL-17RA. The source holds these as a separate data set.
Assay [3] has as its target T2, Recombinant human IL-17A (Peprotech AF-200-17) (human, UniProt Q16552 24-155).
Assay [4] addresses T2, Recombinant human IL-17A (Peprotech …). The source holds these as a separate data set.

T2 sequence (Q16552 24-155): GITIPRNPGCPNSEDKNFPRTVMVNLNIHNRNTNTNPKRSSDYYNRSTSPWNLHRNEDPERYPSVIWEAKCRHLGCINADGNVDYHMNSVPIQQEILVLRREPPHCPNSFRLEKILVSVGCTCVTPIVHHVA

B1: clone 2.1 VH (VHH)
VHH: QVQLVQSGAEVKKPGASVKVSCKASGYPFTSYDINWVRQATGQSLEWMGWMNPNSGDTVYAQKFQGRVTMTRNTSISTAYMELSSLRSEDTAVYFCARGRRDDWKNNYWGQGTLVTVSS
For the molecule B1, the Kd in assay [1] and in assay [2] was 6 nM throughout.

B2: clone 2.2 VH (VHH)
VHH: B1 VHH with Q43R, N54T, S55N, D57N, G66D
Take B2: the Kd (usually the equilibrium constant for the complex coming apart) in assay [2] came to 1.4 nM.

B3: clone 1.10 VH (VHH)
VHH: VQLVESGGGLVQPGGSLRLSCAASGFTFSSYRMYWVRQAPGKGLEWVASIEQDGSEEYYVDSVKGRFTISRDNAKKSLFLQMNSLRAEDTAVYYCAKGEILPLYFDYWGQGTLVTVSS
On to B3, for which the Kd in assay [3] came out at 1 nM.

B4: clone 1.1 VH (VHH)
VHH: EVQLVESGGGLVQPGGSLRLSCAASGFTFSSYSMYWVRQAPGKGLEWVANIKQDGSEKYYVDSVKGRFTISRDNAKNSLFLQMNSLRAEDTAVYYCAKGEILPLHFDYWGQGTLVTVSS
For the molecule B4, the Kd in assay [4] and in assay [3] was 5 nM each time.

B5: clone 1.6 VH (VHH)
VHH: B4 VHH with N50E, K58Q, F80Y, H105Y
With B5, the Kd in assay [3] came out at 0.63 nM.
